In this assay the target is human corticotropin-releasing factor 2a (CRF2a receptor) (human), Q13324. The assay can be described thus: cell-based or functional assay.

*1 amine or outer side, *2 acyl side, *3 side chain or, on linkers, in order; H or OH if unused. Where no end group is shown, it is not given here. Side-chain parts run from the residue outwards. [ ]: non-standard residue; d: D form. The star is where a group is joined. C20 diacid = O=C(O)CCCCCCCCCCCCCCCCCCC(=O)*; γGlu = O=C(O)[C@H](CCC(=O)[*:2])N[*:1]; NMeI = CC[C@H](C)[C@H](NC)C(=O)O; AEEA = NCCOCCOCC(=O)O; Aib = CC(C)(N)C(=O)O

human corticotropin-releasing factor 2a (CRF2a receptor) (human), Q13324, sequence (Q13324 20-411): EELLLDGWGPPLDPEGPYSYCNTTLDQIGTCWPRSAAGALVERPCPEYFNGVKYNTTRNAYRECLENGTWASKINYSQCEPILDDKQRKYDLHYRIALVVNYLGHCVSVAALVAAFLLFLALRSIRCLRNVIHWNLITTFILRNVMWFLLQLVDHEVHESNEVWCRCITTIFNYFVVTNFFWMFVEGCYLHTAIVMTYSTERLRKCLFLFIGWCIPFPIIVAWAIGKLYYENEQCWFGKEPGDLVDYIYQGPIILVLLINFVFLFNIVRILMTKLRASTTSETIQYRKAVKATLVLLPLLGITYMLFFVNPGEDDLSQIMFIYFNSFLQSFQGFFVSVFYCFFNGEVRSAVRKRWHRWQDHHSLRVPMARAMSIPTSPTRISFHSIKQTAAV

B1: SEQ ID NO 238 (peptide)
peptide: Ac-IVLSLD[dV]PIKLK([AEEA-AEEA-γGlu-C20 diacid])KILLEQEKQKKQREQAETN[Aib]QILAQV-NH2
SMILES: CC[C@H](C)[C@H](NC(C)=O)C(=O)N[C@H](C(=O)N[C@@H](CC(C)C)C(=O)N[C@@H](CO)C(=O)N[C@@H](CC(C)C)C(=O)N[C@@H](CC(=O)O)C(=O)N[C@@H](C(=O)N1CCC[C@H]1C(=O)N[C@H](C(=O)N[C@@H](CCCCN)C(=O)N[C@@H](CC(C)C)C(=O)N[C@@H](CCCCNC(=O)COCCOCCNC(=O)COCCOCCNC(=O)CC[C@H](NC(=O)CCCCCCCCCCCCCCCCCCC(=O)O)C(=O)O)C(=O)N[C@@H](CCCCN)C(=O)N[C@H](C(=O)N[C@@H](CC(C)C)C(=O)N[C@@H](CC(C)C)C(=O)N[C@@H](CCC(=O)O)C(=O)N[C@@H](CCC(N)=O)C(=O)N[C@@H](CCC(=O)O)C(=O)N[C@@H](CCCCN)C(=O)N[C@@H](CCC(N)=O)C(=O)N[C@@H](CCCCN)C(=O)N[C@@H](CCCCN)C(=O)N[C@@H](CCC(N)=O)C(=O)N[C@@H](CCCNC(=N)N)C(=O)N[C@@H](CCC(=O)O)C(=O)N[C@@H](CCC(N)=O)C(=O)N[C@@H](C)C(=O)N[C@@H](CCC(=O)O)C(=O)N[C@H](C(=O)N[C@@H](CC(N)=O)C(=O)NC(C)(C)C(=O)N[C@@H](CCC(N)=O)C(=O)N[C@H](C(=O)N[C@@H](CC(C)C)C(=O)N[C@@H](C)C(=O)N[C@@H](CCC(N)=O)C(=O)N[C@H](C(N)=O)C(C)C)[C@@H](C)CC)[C@@H](C)O)[C@@H](C)CC)[C@@H](C)CC)C(C)C)C(C)C
B1: the EC50 [nM] (cAMP) came to 0.11 nM.

B2: SEQ ID NO 241 (peptide)
peptide: Ac-IVLSLD[dV]PIKLK([γGlu-γGlu-C20 diacid])KILLEQEKQKEQREQAETN[Aib]QILAQV-NH2
SMILES: CC[C@H](C)[C@H](NC(C)=O)C(=O)N[C@H](C(=O)N[C@@H](CC(C)C)C(=O)N[C@@H](CO)C(=O)N[C@@H](CC(C)C)C(=O)N[C@@H](CC(=O)O)C(=O)N[C@@H](C(=O)N1CCC[C@H]1C(=O)N[C@H](C(=O)N[C@@H](CCCCN)C(=O)N[C@@H](CC(C)C)C(=O)N[C@@H](CCCCNC(=O)CC[C@H](NC(=O)CC[C@H](NC(=O)CCCCCCCCCCCCCCCCCCC(=O)O)C(=O)O)C(=O)O)C(=O)N[C@@H](CCCCN)C(=O)N[C@H](C(=O)N[C@@H](CC(C)C)C(=O)N[C@@H](CC(C)C)C(=O)N[C@@H](CCC(=O)O)C(=O)N[C@@H](CCC(N)=O)C(=O)N[C@@H](CCC(=O)O)C(=O)N[C@@H](CCCCN)C(=O)N[C@@H](CCC(N)=O)C(=O)N[C@@H](CCCCN)C(=O)N[C@@H](CCC(=O)O)C(=O)N[C@@H](CCC(N)=O)C(=O)N[C@@H](CCCNC(=N)N)C(=O)N[C@@H](CCC(=O)O)C(=O)N[C@@H](CCC(N)=O)C(=O)N[C@@H](C)C(=O)N[C@@H](CCC(=O)O)C(=O)N[C@H](C(=O)N[C@@H](CC(N)=O)C(=O)NC(C)(C)C(=O)N[C@@H](CCC(N)=O)C(=O)N[C@H](C(=O)N[C@@H](CC(C)C)C(=O)N[C@@H](C)C(=O)N[C@@H](CCC(N)=O)C(=O)N[C@H](C(N)=O)C(C)C)[C@@H](C)CC)[C@@H](C)O)[C@@H](C)CC)[C@@H](C)CC)C(C)C)C(C)C
Molecule B2 returned an EC50 [nM] (cAMP) of 0.56 nM.

B3: SEQ ID NO 240 (peptide)
peptide: Ac-IVLSLD[dV]PIKLK([AEEA-AEEA-γGlu-C20 diacid])KILLEQEKQKAQREQAETN[Aib]QILAQV-NH2
SMILES: CC[C@H](C)[C@H](NC(C)=O)C(=O)N[C@H](C(=O)N[C@@H](CC(C)C)C(=O)N[C@@H](CO)C(=O)N[C@@H](CC(C)C)C(=O)N[C@@H](CC(=O)O)C(=O)N[C@@H](C(=O)N1CCC[C@H]1C(=O)N[C@H](C(=O)N[C@@H](CCCCN)C(=O)N[C@@H](CC(C)C)C(=O)N[C@@H](CCCCNC(=O)COCCOCCNC(=O)COCCOCCNC(=O)CC[C@H](NC(=O)CCCCCCCCCCCCCCCCCCC(=O)O)C(=O)O)C(=O)N[C@@H](CCCCN)C(=O)N[C@H](C(=O)N[C@@H](CC(C)C)C(=O)N[C@@H](CC(C)C)C(=O)N[C@@H](CCC(=O)O)C(=O)N[C@@H](CCC(N)=O)C(=O)N[C@@H](CCC(=O)O)C(=O)N[C@@H](CCCCN)C(=O)N[C@@H](CCC(N)=O)C(=O)N[C@@H](CCCCN)C(=O)N[C@@H](C)C(=O)N[C@@H](CCC(N)=O)C(=O)N[C@@H](CCCNC(=N)N)C(=O)N[C@@H](CCC(=O)O)C(=O)N[C@@H](CCC(N)=O)C(=O)N[C@@H](C)C(=O)N[C@@H](CCC(=O)O)C(=O)N[C@H](C(=O)N[C@@H](CC(N)=O)C(=O)NC(C)(C)C(=O)N[C@@H](CCC(N)=O)C(=O)N[C@H](C(=O)N[C@@H](CC(C)C)C(=O)N[C@@H](C)C(=O)N[C@@H](CCC(N)=O)C(=O)N[C@H](C(N)=O)C(C)C)[C@@H](C)CC)[C@@H](C)O)[C@@H](C)CC)[C@@H](C)CC)C(C)C)C(C)C
Turning to B3, the EC50 [nM] (cAMP) turned out to be 0.22 nM.

B4: SEQ ID NO 239 (peptide)
peptide: [NMeI]VLSLD[dV]PIKLK([AEEA-AEEA-γGlu-C20 diacid])KILLEQEKQK[Aib]QREQAETN[Aib]QILAQV-NH2
modifications: N-terminus assumed
SMILES: CC[C@H](C)[C@H](NC)C(=O)N[C@H](C(=O)N[C@@H](CC(C)C)C(=O)N[C@@H](CO)C(=O)N[C@@H](CC(C)C)C(=O)N[C@@H](CC(=O)O)C(=O)N[C@@H](C(=O)N1CCC[C@H]1C(=O)N[C@H](C(=O)N[C@@H](CCCCN)C(=O)N[C@@H](CC(C)C)C(=O)N[C@@H](CCCCNC(=O)COCCOCCNC(=O)COCCOCCNC(=O)CC[C@H](NC(=O)CCCCCCCCCCCCCCCCCCC(=O)O)C(=O)O)C(=O)N[C@@H](CCCCN)C(=O)N[C@H](C(=O)N[C@@H](CC(C)C)C(=O)N[C@@H](CC(C)C)C(=O)N[C@@H](CCC(=O)O)C(=O)N[C@@H](CCC(N)=O)C(=O)N[C@@H](CCC(=O)O)C(=O)N[C@@H](CCCCN)C(=O)N[C@@H](CCC(N)=O)C(=O)N[C@@H](CCCCN)C(=O)NC(C)(C)C(=O)N[C@@H](CCC(N)=O)C(=O)N[C@@H](CCCNC(=N)N)C(=O)N[C@@H](CCC(=O)O)C(=O)N[C@@H](CCC(N)=O)C(=O)N[C@@H](C)C(=O)N[C@@H](CCC(=O)O)C(=O)N[C@H](C(=O)N[C@@H](CC(N)=O)C(=O)NC(C)(C)C(=O)N[C@@H](CCC(N)=O)C(=O)N[C@H](C(=O)N[C@@H](CC(C)C)C(=O)N[C@@H](C)C(=O)N[C@@H](CCC(N)=O)C(=O)N[C@H](C(N)=O)C(C)C)[C@@H](C)CC)[C@@H](C)O)[C@@H](C)CC)[C@@H](C)CC)C(C)C)C(C)C
As for B4, the EC50 [nM] (cAMP) stood at 0.11 nM.

The values above are taken from patent publication US20260001928A1 (CORTERIA PHARMACEUTICALS, priority 2022, published 2026).
